Reference: publication PMC7610145, “Transglutaminase-Mediated Cross-Linking of Tropoelastin to Fibrillin Stabilises the Elastin Precursor Prior to Elastic Fibre Assembly” (Journal of Molecular Biology, 2020)

Experiments:
Settings in all cases: both partners purified
[1] = target: T1, tropoelastin, SHELΔ26A (Synthetic Human Elastin without domain 26A) (human, UniProt P15502-2 27-724); test: SEC-MALS; TG2 cross-linked complex eluting at ~10 ml, 0.5 mg/ml, Superose 6, 10 mM Tris–HCl (pH 7.4), 150 mM NaCl
T1 construct: human tropoelastin without domain 26A; residues 27–724, the 60 kDa mature form of the secreted protein following removal of the signal peptide; the precursor counted on has 724 residues (isoform lacking domain 26A); contains K38 in domain 4; also called TE; full-length TE; source: expressed in bacteria, purified as described previously [23]
T1 sequence (looked up): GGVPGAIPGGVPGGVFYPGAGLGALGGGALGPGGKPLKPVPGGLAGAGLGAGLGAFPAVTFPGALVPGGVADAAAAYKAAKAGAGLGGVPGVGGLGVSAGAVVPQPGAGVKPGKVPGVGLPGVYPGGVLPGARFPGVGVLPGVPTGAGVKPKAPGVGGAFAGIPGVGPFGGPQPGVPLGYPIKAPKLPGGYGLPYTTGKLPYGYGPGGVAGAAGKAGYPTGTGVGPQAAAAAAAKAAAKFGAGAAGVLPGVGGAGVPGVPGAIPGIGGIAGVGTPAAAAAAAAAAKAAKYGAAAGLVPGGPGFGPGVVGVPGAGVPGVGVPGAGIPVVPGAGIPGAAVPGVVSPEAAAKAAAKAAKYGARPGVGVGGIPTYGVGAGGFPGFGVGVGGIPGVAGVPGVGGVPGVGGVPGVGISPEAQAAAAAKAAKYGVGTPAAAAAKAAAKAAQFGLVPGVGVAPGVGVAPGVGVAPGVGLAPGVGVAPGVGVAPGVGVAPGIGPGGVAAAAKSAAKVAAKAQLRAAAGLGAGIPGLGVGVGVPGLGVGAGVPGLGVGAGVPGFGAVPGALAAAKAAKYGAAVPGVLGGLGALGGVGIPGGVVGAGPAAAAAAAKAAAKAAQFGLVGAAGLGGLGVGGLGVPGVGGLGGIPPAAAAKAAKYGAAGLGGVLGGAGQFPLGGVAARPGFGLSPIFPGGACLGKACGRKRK

[2] = target: T1, tropoelastin, SHELΔ26A (Synthetic Human …); test: SEC; PF2 and TE incubated with TG2 at a 1:1 ratio, separated on a Superose 6 column in 10 mM Hepes, 500 mM NaCl, 1 mM CaCl2 (pH 7.4); fractions on SDS-PAGE
[3] = target: T1, tropoelastin, SHELΔ26A (Synthetic Human …); test: cross-linking; PF2 and TE incubated alone or together (1:1 or 2:1) at 16 °C for 2 h in 10 mM Hepes, 500 mM NaCl, 1 mM CaCl2 (pH 7.4), then with or without TG2 from guinea pig liver for a further 4 h; read by SDS-PAGE

stoichiometry N [1]: ~1 PF2:TE
stoichiometry of the larger species [2]: 2 copies of each (2:2)
stoichiometry N [3]: 1 PF2:TE
B1: fibrillin-1 PF2 fragment (domains TB1 to TB2, encoded by exons 9–17), natively glycosylated (domain or fragment)
chain: not shown
modifications: N-linked glycan at N448
notes: fibrillin-1, fragment encompassing domains TB1 to TB2, encoded by exons 9–17; includes Q669 (TB2); SAXS data on PF2, TE and the complex are deposited in the SASDB (SAS2517, 2518, 2519); also called fibrillin PF2; fibrillin PF2 construct
